The text below walks through data of PMC9127804.

This assay addresses N-terminal hexahistidine-tagged CrlT (Pseudomonas aeruginosa WK172). The assay is described as follows: pull-down; NHis-CrlT and untagged CrlA co-produced from pET28b-His-crlTA in E. coli BL21; Ni-NTA resin, lysis buffer 50 mM potassium phosphate pH 8.0, 300 mM NaCl; Tricine-SDS-PAGE.

As to “untagged antitoxin CrlA (natural protein)”, the stoichiometry N (usually the number of molecules, sites or subunits per partner or assembly) was found to be 1.
